Assay results reported in the supplement of paper PMC10567573.

B1: MFF (parent)
chain: DDLTVVDAASLRRQIIKLNRRLQL

Variants of: B1
Experiment: protein stability index of a GFP-peptide fusion (GPS, HEK-293T) (PSI 1-6); higher = more stable
Details: c terminus: a fixed tail appended
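Further: lentivirally expressed fusions sorted by FACS into six bins by GFP to DsRed ratio, PSI derived from sequencing read proportions per bin multiplied by bin number.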

Protein stability index of substitutions, site by site:
Q23: V 1.34, T 2.08
L24: C 2.06, N 2.35, I 2.32, T 2.38, Y 1.72, M 1.71, K 2.99, R 2.74, D 2.77, F 1.8, H 2.21, A 2.29, E 2.23, W 1.94, G 2.56, Q 2.89, S 2.42, P 2.89, V 3.01
